Test results: US11629364B2, “Methods for synthesizing anticoagulant polysaccharides” (OPTIMVIA, LLC, priority 2019, dated 2023)
Positions count from the first letter of the chain named.

B1: SEQ ID NO: 26: engineered aryl sulfate-dependent 3OST enzyme, mutant of isoform 1 of the human 3OST enzyme (protein)
chain: MGTASNGSTQQLPQTIIIGVGHGGTRALLEMLSLHPDVAAAENEVHFFDWEEHYSQGLGWYLTQMPFSSPHQLTVEKTHSYFTSPKVPERIHSMNPTIRLLLILRDPSERVLSAYTHMLYNHLQKHKPYPPIEDLLMRDGRLNLDYTGLNRSLYHAHMLNWLRFFPLGHIHIVDGDRLIRDPFPEIQKVERFLKLSPQINASNFYFNKTKGFYCLRDSGKDRCLHESKGRAHPQVDPKLLDKLHEYFHEPNKKFFKLVGRTFDWH
modifications: Amino acid sequence encoding for engineered arylsulfate-dependent 3-O-sulfotransferase variant 2
notes: engineered aryl sulfate-dependent 3OST enzyme, mutant of isoform 1 of the human 3OST enzyme
B2: SEQ ID NO: 41: mutant of the human 2OST enzyme carrying the SEQ ID NO: 14 mutations (protein)
chain: MDEEEDMVIIYNRVPHTASTSFTNIAYDLCAKNKYHVLHINTTKNNPVMSLQDQVRFVKNITSWKEMKPGFYHGHVSYLDFAKFGVKKKPIYINVIRDPIERLVSYYYHLRFGDDYRPGLRRRKQGDKKTFDECVAEGGSDCAPEKLWLQIPFFCGHSSECWNVGSRWAMDQAKYNLINEYFLVGVTEELEDFIMLLEAALPRFFRGATELYRTGKKSHLHKTTEKKLPTKQTIAKLQQSDIWKMENEFYEFALEQFQFIRAHAVREKDGDLYILAQNFFYEKIYPKSN
modifications: Amino acid sequence encoding for engineered arylsulfate-dependent 2-O-sulfotransferase variant 3
B3: SEQ ID NO: 42: mutant of the human 2OST enzyme carrying the SEQ ID NO: 16 mutations (protein)
chain: B2 chain with P15H, H16R, T20H, N45G, H75P, H109F, D114S, Y116K, R122M
modifications: Amino acid sequence encoding for engineered arylsulfate-dependent 2-O-sulfotransferase variant 4

Experiments:
Type in all cases: biochemical
[1] = 3OST activity confirmed by 1H NMR; conditions: PNS as aryl sulfate compound
Procedure: Each enzyme was purified according to the procedure of Example 1. To each purified protein solution, 20 mg of an aryl sulfate compound (PNS or NCS) dissolved in 2 mL of reaction buffer (50 mM MES pH 7.0, 2 mM CaCl2)) was added to the protein solution and incubated at 37° C. for 10 min. 2.5 mL of 2 mg/mL solution of the commercial heparin polysaccharide utilized in Example 5 was added to protein/donor solution and incubated overnight at 37° C.
Each reaction was centrifuged at 5,000×g for 10 min, applied to a pre-wetted 30K MWCO Amicon-15 filter and centrifuged at 5,000×g for 10 min. The filter was washed once with 2 mL water, and centrifuged again. The filtrate was added to a 1K MWCO Dialysis membrane, dialyzed for 2 days in Milli-Q water, with water changes at 1 h, 2 h, 8 h, 16 h, 32 h, and then lyophilized. The dry, white powder was resuspended in 400 μL D20, lyophilized to remove exchangeable protons, then resuspended in 600 μL D2O and transferred to NMR tubes (Wilmad, 0.38 mm×7″). To determine if sulfotransfer took place, ^1H NMR spectra were obtained on a Bruker 600 MHz NMR, 32 scans, with water suppression. Within FIG. 30, the 3-O positions of any of the glucosamine residues can be sulfated by the 3OST enzyme. The sulfated 3-O position is circled in the central polysaccharide. […]

[2] = 3OST activity: 3-O sulfated products detected by LCMS after lyase digestion
Procedure: A study was conducted in accordance with embodiments of the present disclosure to confirm 3OST activity of enzymes comprising the amino acid sequence of SEQ ID NO: 24, SEQ ID NO: 26, or SEQ ID NO: 28 by detecting the presence of 3-O sulfated polysaccharide products as a result of their sulfotransfer reaction, using a reaction, using a similar LCMS procedure as in Example 3, except that the sulfo acceptor polysaccharide was commercially-available heparin (CAS code: 9041-08-1, available from Millipore Sigma). Even though the unmodified heparin contains ˜3.5% (w/w) of 3-O sulfated glucosamine residues, about ˜60% of the glucosamine residues are N,6-sulfated and are adjacent to a 2-O sulfated hexuronic acid residue, as in Formula X. Consequently, these N,6-sulfated glucosamine residues can still be 3-O sulfated.

[3] = 2OST activity: 2-O sulfated products detected by LCMS after lyase digestion; conditions: procedures of Example 3; expected
Procedure: A study was conducted in accordance with embodiments of the present disclosure to confirm 2OST activity of enzymes comprising the amino acid sequence of SEQ ID NO: 14 or SEQ ID NO: 16 by detecting the presence of 2-O sulfated polysaccharide products formed as a result of their sulfotransfer reaction, using a similar procedure as in Example 2, except that the sulfo acceptor polysaccharide was commercial heparin in which the 2-O sulfate groups had been selectively removed by chemical means (product DSH001/2, available from Galen Laboratory Supplies) and analysis of each of the digested samples containing sulfated products was conducted using mass spectrometry, coupled with SAX-based high performance liquid chromatography (LCMS).
Disaccharides obtained by digesting the 2-O sulfated products using the carbon-oxygen lyases having the amino acid sequence of SEQ ID NO: 30, SEQ ID NO: 31, and SEQ ID NO: 32 and according to the procedure described above in Example 2 were quantified on a Shimadzu LCMS-8050 Triple Quadrupole Liquid Chromatograph Mass Spectrometer. 100 ng of each of the digested samples, diluted in 10 mM ammonium bicarbonate (pH 10). The disaccharides were separated on a Thermo Hypercarb HPLC column (100×2.1 mm, 5 μm). […]

Molecule	3OST sulfotransferase activity with PNS (NMR) [1]	3OST sulfotransferase activity with NCS ([2]; NCS as aryl sulfate compound)	abundance of 3-O sulfation in product ([2]; relative to the commercial heparin standard)	2OST activity: N,2-HS products by MS [3]
B1	3-O sulfotransferase activity	active as a sulfotransferase	higher abundance of 3-O sulfation	
B2				confirm the presence of N,2-HS products
B3				confirm the presence of N,2-HS products
